Test results reported in IntAct's records for PubMed 24291004.

B1: Glucocorticoid receptor (Homo sapiens), P04150 (parent)
chain: MDSKESLTPGREENPSSVLAQERGDVMDFYKTLRGGATVKVSASSPSLAVASQSDSKQRRLLVDFPKGSVSNAQQPDLSKAVSLSMGLYMGETETKVMGNDLGFPQQGQISLSSGETDLKLLEESIANLNRSTSVPENPKSSASTAVSAAPTEKEFPKTHSDVSSEQQHLKGQTGTNGGNVKLYTTDQSTFDILQDLEFSSGSPGKETNESPWRSDLLIDENCLLSPLAGEDDSFLLEGNSNEDCKPLILPDTKPKIKDNGDLVLSSPSNVTLPQVKTEKEDFIELCTPGVIKQEKLGTVYCQASFPGANIIGNKMSAISVHGVSTSGGQMYHYDMNTASLSQQQDQKPIFNVIPPIPVGSENWNRCQGSGDDNLTSLGTLNFPGRTVFSNGYSSPSMRPDVSSPPSSSSTATTGPPPKLCLVCSDEASGCHYGVLTCGSCKVFFKRAVEGQHNYLCAGRNDCIIDKIRRKNCPACRYRKCLQAGMNLEARKTKKKIKGIQQATTGVSQETSENPGNKTIVPATLPQLTPTLVSLLEVIEPEVLYAGYDSSVPDSTWRIMTTLNMLGGRQVIAAVKWAKAIPGFRNLHLDDQMTLLQYSWMFLMAFALGWRSYRQSSANLLCFAPDLIINEQRMTLPCMYDQCKHMLYVSSELHRLQVSYEEYLCMKTLLLLSSVPKDGLKSQELFDEIRMTYIKELGKAIVKREGNSSQNWQRFYQLTKLLDSMHEVVENLLNYCFQTFLDKTMSIEFPEMLAEIITNQIPKYSNGNIKKLLFHQK

Variants of: B1
Conditions: with akt1_human AKT1, P31749
Chain of akt1_human AKT1, P31749 (P31749 whole entry): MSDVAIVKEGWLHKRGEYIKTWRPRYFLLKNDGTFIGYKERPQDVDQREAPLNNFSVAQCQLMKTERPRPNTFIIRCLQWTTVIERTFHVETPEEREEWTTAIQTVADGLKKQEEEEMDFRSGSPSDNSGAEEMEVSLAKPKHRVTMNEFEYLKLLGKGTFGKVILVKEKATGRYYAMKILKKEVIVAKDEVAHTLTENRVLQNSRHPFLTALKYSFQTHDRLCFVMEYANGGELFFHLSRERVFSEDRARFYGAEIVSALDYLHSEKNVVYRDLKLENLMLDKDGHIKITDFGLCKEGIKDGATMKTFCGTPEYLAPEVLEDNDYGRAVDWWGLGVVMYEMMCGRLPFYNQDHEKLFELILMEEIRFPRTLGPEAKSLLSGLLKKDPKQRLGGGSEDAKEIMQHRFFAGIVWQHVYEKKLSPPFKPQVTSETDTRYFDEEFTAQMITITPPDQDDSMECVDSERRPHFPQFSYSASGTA

Variant | effect of a mutation on the interaction
S134A | disrupting interaction
